# According to the nanobody polyreactivity screen of Harvey et al. (2022):
# Assay: yeast display, Sf9 membrane polyspecificity reagent, FACS + sequencing; frameworks hold sequencing errors
# Procedure, shortened: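 Galactose-induced (36–48 hours) yeast carrying a synthetic nanobody display library were exposed to 10% biotinylated, detergent-solubilized Sf9 membrane reagent at 4 °C for 1 hour. FACS followed streptavidin microbead enrichment, using low and high (top ~1%) gates for expression (anti-HA) and reagent binding (streptavidin). Colony PCR, MiSeq 2 × 250 sequencing and CDR-length filtering followed. Labels for polyreactivity reflect the gate of origin.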
row,Sequence,polyreactivity (PSR sort gate)
1,QVQLVESGGCLVQAGGSLRLSCAPSGLTMHYYAMGWYRQAPATERELVAAITYSCGSTYYADSVKGRFTISLDNAKNTVYLQMNILKAEDTAVYYCAADTFPTTSEVDYWGQGTQVTVSS,low polyreactivity
2,QVQLVESGGCLVQAGGSLRLSCASSGFTFDIYAMGWYRQAPGKERELVATISFTGDTTSYADSGKGRFTISRDNAKNTVYLQMNSLKPEDTAVYYCAADGSYPLSVGRENLHYAEFDYWGKGTQVTVSS,low polyreactivity
3,QVQLVESGGCLVQAGGSLRLSCASSGSTFTHYAMGWYIQSPGKERELVAAISSGGSTYYADSVKGRFTISRDNAKNTVYLQMNSLKPEDTAVYYCAADYYLHDWWYPHDYWGQGTQVTVSS,low polyreactivity
4,QVQLVESGGCLVQAGGSLRLSCDASGIIFRGNAMGWYRHAPGTERELVAAISSAGSTNYSDSVKGRFTISRDNAKNTVYLQMNSLKPEDTAVYYCAKGSIKYHVTLRGRGYYWGQGTQVTVSS,low polyreactivity
5,QVQLVESGGCLVQAGGSLRLSCDASGSTFPYYAMGWYRQAPGKERELVAAITLSGSSTYYTDSVKGRFTISRDNAKNTVYLQMNSLKPEDTAVYYCATRRVQWGYRYSYWRQGTQVTVSS,high polyreactivity
6,QVQLVESGGCLVQAGGSLRLSCSASGLTFRYYAMGWYRQAPGKESELVAAITRRGSTYYADSVKGRFTISRDIAKNTVYLQMNSLKPEDSAVYYCATVTGFHSSPLRDLDYWGQGTLVTVSS,high polyreactivity
7,QVQLVESGGCLVQAGGSLRLSSAASGFTFRRYTMGWYRQAPGKVRELVAAISRSGGSTFYADSVKGRFTISRDNAKNTVYLQLNSLKPEDSAVYYCNAGRTYTALNGDYWGHGTQVTVSS,high polyreactivity
8,QVQLVESGGCLVQAGGSLRLSSAASGRTFDHYAMGWYRQAPGKERELDAAITSGGSTYYADSVKGRFTISRDNAKNTVYLQMNSLKPEDTAVYYCNKDSSFWGSYIAQVNERDYWGQGTQVTVSS,low polyreactivity
9,QVQLVESGGCLVQAGGSLRLTCAASGFTFVYNAMGWYRQDPGKERELVARISVSGGSTYYADSVKGRFTISRDNAKNTVYLQMNSLKPEDTSVYYCAAELSAPQPDYQLKVDYYYWGQGTQVTVSS,low polyreactivity
10,QVQLVESGGCLVQAGGSLSLSCAASGFIFDHNAMGWYRQAPGKERELVAAITWRGDSTYYADSVKGRFTISRDTAKNSVYVQMNSLKPEDTAVYYCNADAILVYYGKLDYWGQGTQVTVSS,low polyreactivity
11,QVQLVESGGCLVQAGGSRRLSWAASGRIFDTYTMGWYRQAPGKERELVAAITSGGSTYYADSVKGRFTISRDNAMNTVYLQMNSLKPEDTAVYYCAARYRSIIRYYYWGQGTQVTVSS,high polyreactivity
12,QVQLVESGGCLVQARGSLRLSCASSGFIFQAYAIGWYRHRPGKERELVASISYSGSRTYYADSVKGRFTISRDNAKNTVYLQMNSLKPADTAVYYCAAGPRYWYPWFGRDYEYWGQGTQVTVSS,high polyreactivity
13,QVQLVESGGCLVQSGGSLRLSCAASGSTFRGYAMGWYRQAPGKEREFVAAISKGGASTYYADSVKGRFTISRDNAMNTVYLQMNSLKPEDTAVYYCAKGAYRRAYGTYYYWGQGTQVTVSS,high polyreactivity
14,QVQLVESGGDLVQAGGSLRLSCAASGRSYKYNDMGWYRQAPRKERELVADISSGVSTYYADSVKGRFTISRDNAKNTVYLQMNSLKPEDTAVYYFNAYSDGDEDYWGQGTQVTVSS,low polyreactivity
15,QVQLVESGGFLVQAAGSLRLSCDASGFTFSSYSMGWYRQAPGKERELVAAISTRGGSTYYADSVKGRFTISLDNAMNSVYLLLNSLKPEDTADYYCATGGRGGRRYDYWGQGTQVTVSS,low polyreactivity
16,QVQLVESGGGFVHAGGSLRLSCAASGITSRFYAIGWYRQAPAKERELVAAITSGGGSTRYSDSVKGRFTISRDNAKNTVYLQMNSLKPEDTAVYYCNARVLYYVNGYGGCKRYGYWGQGTQVNVSS,high polyreactivity
